In publication PMC10482750, “Assessment of the roles of Spt5-nucleic acid contacts in promoter proximal pausing of RNA polymerase II” (The Journal of Biological Chemistry, 2023):

Each binder was assayed against T1, negative elongation factor (NELF): NELF-A, NELF-B, NELF-D, NELF-E (Drosophila, UniProt Q86NP2 1-1251; Q9Y113 1-594; Q24134 1-578; P92204 1-280) (assay: native gel or EMSA; stalled Pol II elongation complexes plus purified WT or mutant DSIF and NELF together (supershift); room temperature; Torula yeast RNA added; 4% native polyacrylamide gel run at 4 °C). Conditions: both partners purified.
T1 construct: NELF-A, Drosophila; NELF-B, Drosophila; NELF-D, Drosophila; NELF-E, Drosophila; No tag cleavage is described; source: Sf9, baculovirus, purified (Ni-NTA, anti-FLAG); copies: + + +
T1 sequence (Q86NP2 whole entry, chain 1 of 4): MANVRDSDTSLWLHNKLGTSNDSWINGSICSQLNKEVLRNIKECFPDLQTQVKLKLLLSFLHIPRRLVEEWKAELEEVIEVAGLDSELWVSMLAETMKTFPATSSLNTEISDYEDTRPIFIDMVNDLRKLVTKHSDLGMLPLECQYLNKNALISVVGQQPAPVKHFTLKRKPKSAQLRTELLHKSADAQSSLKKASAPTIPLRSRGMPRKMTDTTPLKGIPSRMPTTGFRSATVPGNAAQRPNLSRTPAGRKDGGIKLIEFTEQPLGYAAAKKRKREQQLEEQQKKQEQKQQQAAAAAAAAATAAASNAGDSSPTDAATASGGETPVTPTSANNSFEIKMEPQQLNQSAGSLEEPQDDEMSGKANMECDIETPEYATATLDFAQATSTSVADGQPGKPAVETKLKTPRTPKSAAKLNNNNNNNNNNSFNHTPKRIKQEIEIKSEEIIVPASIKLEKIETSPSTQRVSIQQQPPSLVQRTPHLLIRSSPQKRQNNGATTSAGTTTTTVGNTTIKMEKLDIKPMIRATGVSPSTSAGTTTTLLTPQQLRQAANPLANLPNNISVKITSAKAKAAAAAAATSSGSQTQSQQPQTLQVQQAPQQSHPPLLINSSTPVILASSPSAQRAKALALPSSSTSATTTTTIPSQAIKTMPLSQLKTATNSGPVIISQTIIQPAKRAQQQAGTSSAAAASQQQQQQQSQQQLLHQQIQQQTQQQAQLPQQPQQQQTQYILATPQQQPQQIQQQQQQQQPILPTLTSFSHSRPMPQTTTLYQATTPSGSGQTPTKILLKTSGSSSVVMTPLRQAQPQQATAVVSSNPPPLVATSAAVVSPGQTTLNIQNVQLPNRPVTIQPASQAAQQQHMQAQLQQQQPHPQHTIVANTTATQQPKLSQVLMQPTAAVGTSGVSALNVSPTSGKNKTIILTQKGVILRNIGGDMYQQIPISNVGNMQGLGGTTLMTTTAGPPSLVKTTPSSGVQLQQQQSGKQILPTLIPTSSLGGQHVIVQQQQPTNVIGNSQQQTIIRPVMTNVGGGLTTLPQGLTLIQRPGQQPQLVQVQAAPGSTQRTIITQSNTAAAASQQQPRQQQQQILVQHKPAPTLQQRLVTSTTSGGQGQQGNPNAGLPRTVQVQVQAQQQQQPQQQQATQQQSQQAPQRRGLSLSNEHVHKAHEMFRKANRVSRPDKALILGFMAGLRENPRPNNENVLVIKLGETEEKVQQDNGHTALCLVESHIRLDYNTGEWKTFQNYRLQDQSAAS
T1 sequence (Q9Y113 whole entry, chain 2 of 4): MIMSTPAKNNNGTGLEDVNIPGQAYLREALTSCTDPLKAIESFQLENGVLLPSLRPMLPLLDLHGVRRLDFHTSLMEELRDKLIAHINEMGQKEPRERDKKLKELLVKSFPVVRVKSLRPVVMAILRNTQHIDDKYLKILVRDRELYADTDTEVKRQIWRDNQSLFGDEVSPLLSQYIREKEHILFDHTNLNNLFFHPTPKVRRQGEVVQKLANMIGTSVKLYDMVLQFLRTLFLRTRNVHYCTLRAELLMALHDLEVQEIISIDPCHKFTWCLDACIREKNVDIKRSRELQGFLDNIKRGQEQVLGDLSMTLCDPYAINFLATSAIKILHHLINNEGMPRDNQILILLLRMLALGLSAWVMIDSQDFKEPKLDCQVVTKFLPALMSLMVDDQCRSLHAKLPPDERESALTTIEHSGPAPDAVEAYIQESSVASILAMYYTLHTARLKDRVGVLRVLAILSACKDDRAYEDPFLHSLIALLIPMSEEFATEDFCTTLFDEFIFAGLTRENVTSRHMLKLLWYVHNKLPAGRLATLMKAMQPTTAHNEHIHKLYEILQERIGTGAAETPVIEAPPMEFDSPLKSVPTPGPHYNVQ
T1 sequence (Q24134 whole entry, chain 3 of 4): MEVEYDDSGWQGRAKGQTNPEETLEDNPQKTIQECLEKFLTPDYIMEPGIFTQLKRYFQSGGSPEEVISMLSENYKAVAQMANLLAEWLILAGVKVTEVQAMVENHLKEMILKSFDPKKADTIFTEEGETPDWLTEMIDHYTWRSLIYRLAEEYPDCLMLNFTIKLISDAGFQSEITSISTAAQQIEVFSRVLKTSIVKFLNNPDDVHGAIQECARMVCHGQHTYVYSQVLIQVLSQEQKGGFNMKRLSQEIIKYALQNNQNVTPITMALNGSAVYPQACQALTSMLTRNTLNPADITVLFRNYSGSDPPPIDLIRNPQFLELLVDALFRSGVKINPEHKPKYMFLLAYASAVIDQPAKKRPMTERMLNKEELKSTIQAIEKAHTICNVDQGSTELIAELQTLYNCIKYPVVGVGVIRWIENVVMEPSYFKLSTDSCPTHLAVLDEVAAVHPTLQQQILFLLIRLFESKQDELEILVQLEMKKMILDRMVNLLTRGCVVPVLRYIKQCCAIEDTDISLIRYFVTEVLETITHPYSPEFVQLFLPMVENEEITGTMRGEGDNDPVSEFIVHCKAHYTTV
T1 sequence (P92204 whole entry, chain 4 of 4): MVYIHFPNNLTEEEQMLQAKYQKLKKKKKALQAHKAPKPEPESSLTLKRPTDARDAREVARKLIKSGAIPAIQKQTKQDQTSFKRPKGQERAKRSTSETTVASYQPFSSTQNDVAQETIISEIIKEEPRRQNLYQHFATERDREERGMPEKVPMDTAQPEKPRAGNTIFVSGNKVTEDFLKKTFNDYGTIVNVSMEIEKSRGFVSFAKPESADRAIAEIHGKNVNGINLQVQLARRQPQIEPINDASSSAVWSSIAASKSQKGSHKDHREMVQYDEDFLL

binding result	Binder
binds	DRB sensitivity-inducing factor (DSIF), wild type (Spt5 and Spt4) (complex, Spt5, Drosophila; Spt4, Drosophila; No tag cleavage is described; A ~100-kDa Spt5 degradation product lacking the acidic N-terminal region is in each preparation; also called WT DSIF; source: E. coli Rosetta (DE3) pLysS, purified (Talon, anti-FLAG)) chain 1: not shown chain 2: MAFDAIPKDLRGLRACLVCSLVKSFDQFETDGCENCEEFLRMKNNKDNVYDHTSNNFDGIIALTTPTDSWVAKWQRLSRFTRGIYAISVSGTLPQSTLRDMKNRGIVYKSRDRSQR
binds	DSIF NGN-Asp mutant (complex, Spt5, Drosophila, two basic residues of the NGN domain changed to aspartic acid; d numbers are Drosophila Spt5; Spt4, Drosophila; as in m2; source: E. coli Rosetta (DE3) pLysS, purified (Talon, anti-FLAG)) chain 1: not shown chain 2: MAFDAIPKDLRGLRACLVCSLVKSFDQFETDGCENCEEFLRMKNNKDNVYDHTSNNFDGIIALTTPTDSWVAKWQRLSRFTRGIYAISVSGTLPQSTLRDMKNRGIVYKSRDRSQR
binds	DSIF Spt4 (R79E, R82E, K109E) mutant (complex, Spt5, Drosophila, wild type; as in m2; Spt4, Drosophila, three basic residues changed to glutamic acid; also called Spt4 mutant; source: E. coli, purified as WT DSIF (Talon, anti-FLAG)) chain 1: not shown chain 2: MAFDAIPKDLRGLRACLVCSLVKSFDQFETDGCENCEEFLRMKNNKDNVYDHTSNNFDGIIALTTPTDSWVAKWQRLSEFTEGIYAISVSGTLPQSTLRDMKNRGIVYESRDRSQR
